The series has as its system CcpA (Streptococcus agalactiae GD201008-001), ORF:5b4dc1e2. The series can be described thus: EMSA. Conditions: EMSA: 20 mM Tris-HCl pH 7.5, 30 mM KCl, 1 mM DTT, 1 mM EDTA, 10% glycerol, 20 uL, 30 min at 37 C; 10% PAGE in 0.5x TBE on ice.

Regarding “AAGTTTTCTCCTTTTGTATTACATTCTAGAGACTAAAGGAGATGTTGAAAATTTCTCCTAATCCCTTTAAATAACATTCTAATCATATCATAAATGTCTATAATTTTAAATTGTGAAAACGCCTTTTTTATGATAAACTTAAAAGTGGACTTTCTATATGAAATCTAGAAAAAAATTGAGGTATAAAC (double strand) [luxS promoter]”, the binding result is listed as “binds”. As for “AGTATTTGTAAAAGCTAATCTTTAGATTAGGCTTTTTTAGTTTATTGATAGTTTTTGGAAGAAAATGCTTGACATTGAAAGAAAAAGAGATATAATTAAATTGCAAACGATTTCAATTCAAGGAGGGAC (double strand) [fruRKI promoter]”, the binding entry is “binds”.

The values are drawn from paper PMC10536698.
